For one substance, Km, kcat and kcat/Km results are on record in paper PMC3741272, “Identification and Characterization of a Novel aac(6′)-Iag Associated with the bla IMP-1–Integron in a Multidrug-Resistant Pseudomonas aeruginosa” (PLoS ONE, 2013).

Broadly, the Km is the concentration of substrate that gives half-maximal velocity. A word on the kcat: it is the maximal rate divided by the concentration of active sites. The term kcat/Km denotes the turnover number divided by the Michaelis constant.

What all share (test): purified protein
Common to all, as to type: biochemical, Pseudomonas aeruginosa
Holding throughout (settings): 200 µM acetyl-CoA, 2 mM DTNB, 50 mM phosphate pH 7.0, 37°C

Data set [1] deals with CN[C@@H]1[C@@H](O)[C@@H](O[C@@H]2[C@@H](O)[C@H](O[C@H]3OC(CN)=CC[C@H]3N)[C@@H](N)C[C@H]2N)OC[C@]1(C)O.
Data set [2] deals with CN[C@@H]1[C@@H](O)[C@@H](O[C@@H]2[C@@H](O)[C@H](O[C@H]3O[C@H](CN)[C@@H](O)[C@H](O)[C@H]3O)[C@@H](N)C[C@H]2NC(=O)[C@@H](O)CN)OC[C@]1(C)O.
In data set [3] the test system is NCC[C@H](O)C(=O)N[C@@H]1C[C@H](N)[C@@H](O[C@H]2O[C@H](CN)CC[C@H]2N)[C@H](O)[C@H]1O[C@H]1O[C@H](CO)[C@@H](O)[C@H](N)[C@H]1O.
The test system of data set [4] is NCC[C@H](O)C(=O)N[C@@H]1C[C@H](N)[C@@H](O[C@H]2O[C@H](CN)[C@@H](O)[C@H](O)[C@H]2O)[C@H](O)[C@H]1O[C@H]1O[C@H](CO)[C@@H](O)[C@H](N)[C@H]1O.
For data set [5], the system named is NC[C@@H]1CC[C@@H](N)[C@@H](O[C@H]2[C@H](O)[C@@H](O[C@H]3O[C@H](CO)[C@@H](O)[C@H](N)[C@H]3O)[C@H](N)C[C@@H]2N)O1.
Data set [6] has as its system NC[C@H]1O[C@H](O[C@H]2[C@H](O)[C@@H](O[C@H]3O[C@H](CO)[C@@H](O)[C@H](N)[C@H]3O)[C@H](N)C[C@@H]2N)[C@H](N)C[C@@H]1O.
The subject of data set [7] is NC[C@H]1O[C@H](O[C@H]2[C@H](O)[C@@H](O[C@H]3O[C@H](CO)[C@@H](O)[C@H](N)[C@H]3O)[C@H](N)C[C@@H]2N)[C@H](O)[C@@H](O)[C@@H]1O.

In the case of AAC(6′)-Iag (Pseudomonas aeruginosa), the Michaelis constant (Km) in data set [1] worked out at 8.81 ± 1.2 µM; in data set [2] it was 209 ± 88 µM; in data set [3], 9.9 ± 1.2 µM; in data set [4] it was 189 ± 108 µM; in data set [5], 3.03 ± 0.64 µM; in data set [6], 3.27 ± 0.76 µM. Also, the Km in data set [7] is 52.1 ± 16 µM. The kcat stood at 0.745 ± 0.08 s⁻¹ in data set [1]; 0.10 ± 0.03 s⁻¹ in data set [2]; 0.79 ± 0.07 s⁻¹ in data set [3]; 0.11 ± 0.03 s⁻¹ in data set [4]; 0.194 ± 0.02 s⁻¹ in data set [5]; 0.15 ± 0.03 s⁻¹ in data set [6]. Besides, the kcat in data set [7] amounted to 0.29 ± 0.06 s⁻¹. Further, the kcat/Km came to 85000 M⁻¹ s⁻¹ in data set [1]; 520 M⁻¹ s⁻¹ in data set [2]; 80000 M⁻¹ s⁻¹ in data set [3]; 780 M⁻¹ s⁻¹ in data set [4]; 64000 M⁻¹ s⁻¹ in data set [5]; 46000 M⁻¹ s⁻¹ in data set [6]. Also, in data set [7], the kcat/Km came out at 5600 M⁻¹ s⁻¹.
